From patent US20060235215A1 (published 2006)

T1: Pyruvate orthophosphate dikinase-like PN20674, prey clone aa 64-263 (Oryza sativa, UniProt Q6AVA8 64-263)
T1 construct: prey; AD fusion; input trait library
T1 sequence: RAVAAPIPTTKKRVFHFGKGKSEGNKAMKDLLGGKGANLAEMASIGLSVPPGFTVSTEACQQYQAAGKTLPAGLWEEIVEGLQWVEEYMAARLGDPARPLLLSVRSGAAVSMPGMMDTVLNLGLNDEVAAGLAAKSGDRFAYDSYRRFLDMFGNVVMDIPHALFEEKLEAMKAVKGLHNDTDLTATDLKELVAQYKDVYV

T2: Pyruvate orthophosphate dikinase-like PN20674, prey clone aa 71-298 (Oryza sativa, UniProt Q6AVA8 71-298)
T2 construct: prey; AD fusion; input trait library
T2 sequence: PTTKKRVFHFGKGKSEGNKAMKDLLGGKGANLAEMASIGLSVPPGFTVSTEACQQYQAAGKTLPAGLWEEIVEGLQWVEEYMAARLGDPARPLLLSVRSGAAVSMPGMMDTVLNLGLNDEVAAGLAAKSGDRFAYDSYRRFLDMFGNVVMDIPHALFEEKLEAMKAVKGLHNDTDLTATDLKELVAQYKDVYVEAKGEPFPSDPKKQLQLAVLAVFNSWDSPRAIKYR

T3: Beta-Expansin EXPB2, prey clone aa 80-207 (Oryza sativa, UniProt O24230 80-207)
T3 construct: prey; AD fusion; input trait library; also called OsEXPB2; PN19902
T3 sequence: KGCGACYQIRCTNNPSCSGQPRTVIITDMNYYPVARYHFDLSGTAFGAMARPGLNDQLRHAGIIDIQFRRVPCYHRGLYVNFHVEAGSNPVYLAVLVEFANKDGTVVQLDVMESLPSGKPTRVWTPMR

T4: O. sativa Catalase A Isozyme, prey clone aa 332-433 (Oryza sativa, UniProt P0C549 332-433)
T4 construct: prey; AD fusion; input trait library; also called OsCATA; PN20899
T4 sequence: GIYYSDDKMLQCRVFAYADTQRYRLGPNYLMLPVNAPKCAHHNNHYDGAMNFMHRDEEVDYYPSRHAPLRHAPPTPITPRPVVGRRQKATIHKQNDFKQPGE

T5: O. sativa Cellulose Synthase Catalytic Subunit, RSW1-Like, prey clone aa 411-489 (Oryza sativa, UniProt A2Y0X2 411-489)
T5 construct: prey; AD fusion; input trait library; also called OsCS; PN19707
T5 sequence: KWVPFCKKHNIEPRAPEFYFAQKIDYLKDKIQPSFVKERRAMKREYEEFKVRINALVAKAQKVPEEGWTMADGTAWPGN

T6: Novel Protein PN22154, Similar to A. thaliana Glutamyl Aminopeptidase, prey clone aa 390-562 (Oryza sativa, UniProt Q6Z6L4 390-562)
T6 construct: prey; AD fusion; input trait library; also called OsPN22154
T6 sequence: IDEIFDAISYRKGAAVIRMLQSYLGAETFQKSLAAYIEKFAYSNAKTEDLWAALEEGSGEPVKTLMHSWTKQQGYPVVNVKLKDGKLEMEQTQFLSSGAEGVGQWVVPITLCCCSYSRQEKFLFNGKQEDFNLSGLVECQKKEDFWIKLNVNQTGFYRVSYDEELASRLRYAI

T7: Novel Protein PN23485, Similar to Hordeum vulgare Coproporphyrinogen III Oxidase, chloroplast precursor, prey … (Oryza sativa, UniProt Q7XPL2 165-318)
T7 construct: prey; AD fusion; output trait library; also called OsPN23485
T7 sequence: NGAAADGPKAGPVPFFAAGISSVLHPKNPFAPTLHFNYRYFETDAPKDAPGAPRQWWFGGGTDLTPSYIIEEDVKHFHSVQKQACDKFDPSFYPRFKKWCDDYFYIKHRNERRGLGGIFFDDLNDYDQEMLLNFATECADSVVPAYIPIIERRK

T8: Novel Protein 23053, Fragment, Similar to Arabidopsis Putative Na+-Dependent Inorganic Phosphate … (Oryza sativa, UniProt Q8W0H5 141-320)
T8 construct: prey; AD fusion; input trait library; two clones; also called OsPN23053
T8 sequence: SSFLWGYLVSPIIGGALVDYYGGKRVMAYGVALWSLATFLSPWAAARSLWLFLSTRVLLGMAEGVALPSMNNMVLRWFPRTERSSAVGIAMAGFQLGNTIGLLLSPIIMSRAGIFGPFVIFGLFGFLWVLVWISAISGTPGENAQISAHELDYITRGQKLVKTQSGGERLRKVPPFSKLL

T9: Beta-Expansin EXPB2, prey clone aa 80-218 (Oryza sativa, UniProt O24230 80-218)
T9 construct: prey; AD fusion; input trait library; two clones; also called OsEXPB2; PN19902
T9 sequence: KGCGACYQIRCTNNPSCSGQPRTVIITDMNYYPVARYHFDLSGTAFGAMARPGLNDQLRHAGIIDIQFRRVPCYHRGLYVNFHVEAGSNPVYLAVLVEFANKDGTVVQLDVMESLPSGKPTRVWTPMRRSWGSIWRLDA

T10: O. sativa Putative 14-3-3 Protein, prey clone aa 53-259 (Oryza sativa, UniProt Q06967 53-259)
T10 construct: prey; AD fusion; input trait library; four clones; also called Os008938-3209; PN20215
T10 sequence: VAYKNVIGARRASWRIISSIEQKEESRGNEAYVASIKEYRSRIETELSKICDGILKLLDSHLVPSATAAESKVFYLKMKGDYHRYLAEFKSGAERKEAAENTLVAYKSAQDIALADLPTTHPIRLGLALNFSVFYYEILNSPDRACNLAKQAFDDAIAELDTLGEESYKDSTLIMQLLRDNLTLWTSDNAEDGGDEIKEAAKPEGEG

B1: Hypothetical Protein 006819-2510, Similar to Hemerocallis Senescence-Related Protein 5, bait fragment aa 1-150 (other)
chain: MAFRLSNSLLGILNAVTFLLSVPVLGGGIWLATRADGTECERYFSAPVIAFGVFLLLVSLAGLVGACCRVNCLLWFYLVAMFVLIVVLFCFTVFAFVVTNKGAGEAVSGRGYKEYRLGDYSNWLQKRMENSKNWNRIRSCLQDSKVCKKL
notes: bait; also called Os006819-2510; PN20462
B2: Elicitor responsive protein, bait fragment aa 50-145 (other)
chain: PEWNETFMFSVTHNATELIIKLMDSDSGTDDDFVGEATISLEAIYTEGSIPPTVYNVVKEEEYRGEIKVGLTFTPEDDRDRGLSEEDIGGWKQSS
notes: bait; also called OsERP; PN20696
B3: Novel Protein PN23226, Callose synthase, prey clone aa 345-432 (other)
chain: WFMSNQETSFVTIGQRVLANPLRVRFHYGHPDIFDRLFHLTRGGVSKASKIINLSEDIFAGFNSTLREGNVTHHEYMQVGKGRDVGLN
notes: prey; AD fusion; output trait library; also called OsPN23226
B4: O. sativa 14-3-3 Protein Homolog GF14-c, bait fragment aa 1-150 (other)
chain: MSREENVYMAKLAEQAERYEEMVEYMEKVAKTVDVEELTVEERNLLSVAYKNVIGARRASWRIVSSIEQKEEGRGNEEHVTLIKEYRGKIEAELSKICDGILKLLDSHLVPSSTAAESKVFYLKMKGDYHRYLAEFKTGAERKEAAESTM
notes: bait; also called OsGF14-c; PN12464
B5: O. sativa Defender Against Apoptotic Death 1, bait clone aa 1-115 (other)
chain: MPRATSDAKLLIQSLGKAYAATPTNLKIIDLYVVFAVATALIQVVYMGIVGSFPFNSFLSGVLSCIGTAVLAVCLRIQVNKDNKEFKDLPPERAFADFVLCNLVLHLVIMNFLG
notes: bait; text says OsDAD1 has 114 aa; also called OsDAD1; PN20251
B6: O. sativa Chitinase, Class III, bait fragment aa 10-200 (enzyme)
chain: YIGAQFTGVRFSDVPVNPGLSFHFILAFAIDYFMATQSSKPAPANGVFAPYWDTANLSPAAVAAAKAAHPNLSVILALGGDTVQNTGVNATFAPTSSVDAWVRNAADSVSGLIDAYGLDGVDVDYEHFAAGVDTFVECIGRLLTELKARHPNIATSIAPFEHPVVQRYYQPLWRRYAGVIDYVNFQFYGYG
notes: bait; also called OsCHIB1; PN19651
B7: Hypothetical Protein 006819-2510, Similar to Hemerocallis Senescence-Related Protein 5, bait fragment aa 1-273 (other)
chain: MAFRLSNSLLGILNAVTFLLSVPVLGGGIWLATRADGTECERYFSAPVIAFGVFLLLVSLAGLVGACCRVNCLLWFYLVAMFVLIVVLFCFTVFAFVVTNKGAGEAVSGRGYKEYRLGDYSNWLQKRMENSKNWNRIRSCLQDSKVCKKLQDKNWDRTQFFKADLSPLESGCCKPPSSCNFLYVSGTNWTKVPTNSSDPDCNTWVDDGTQLCYNCQSCKAGAVATLKRDWKRVAVVCIVFLVFIVIVYSLGCCAFRNNRRDNRGAYRGAAWKG
notes: as for B1
B8: O. sativa Defender Against Apoptotic Death 1, bait clone aa 30-115 (other)
chain: DLYVVFAVATALIQVVYMGIVGSFPFNSFLSGVLSCIGTAVLAVCLRIQVNKDNKEFKDLPPERAFADFVLCNLVLHLVIMNFLG
notes: as for B5
B9: O. sativa Chilling-Inducible Protein CAA90866, bait clone aa 100-250 (other)
chain: GEMTERVAQEDRIPVLKASQDHLKEFISICEALELISEDELEISRQKNLIPWQIEEHRRLHGSSAKRLQKQSSRIKERKERRRRHESSCLSAPIELGGDLLRMMEKEREGMVSYYLIGSIEGFDLLDMLKKEEEIVPAVKEGKRRMVMHLL
notes: bait; also called OsCAA90866; PN20311

Experiments:
Assay in all cases: yeast two-hybrid
[1] = biological target: T11, O. sativa Histone Deacetylase HD1, prey clone aa 90-221 (Oryza sativa, UniProt Q7Y0Y8 90-221)
T11 construct: prey; AD fusion; output trait library; also called OsAAK01712; PN24059

[2] = biological target: T1, Pyruvate orthophosphate dikinase-like …
[3] = biological target: T2, Pyruvate orthophosphate dikinase-like …
[4] = biological target: B7
[5] = biological target: T12, O. sativa Chloroplast Ribulose Bisphosphate Carboxylase, Large Chain, prey clone aa 287-462 (Oryza sativa, UniProt P0C510 287-462)
T12 construct: prey; AD fusion; input trait library; also called OsRBCL; PN23426

[6] = biological target: T3, Beta-Expansin EXPB2, prey clone aa …
[7] = biological target: T4, O. sativa Catalase A Isozyme, prey …
Experimental: (§1) Yeast carrying the target gene construct was combined with yeast carrying the activation domain library. The two yeast strains mated to form diploid yeast and were plated on media that selected for expression of one or more Ga14p-responsive reporter genes. Thus, both hybrid proteins (i.e., the target “bait” protein and the activation domain “prey” protein) were expressed in a yeast reporter strain where an interaction between the test proteins results in transcription of the reporter genes […]. Colonies that arose after incubation were selected for further characterization. The activation domain plasmid was isolated from each colony obtained in the two-hybrid search. The sequence of the insert in this construct was obtained by sequence analysis (e.g., Sanger's dideoxy nucleotide chain termination method; see Ausubel et al., 1988, including updates up to 2002). Thus, the identity of positives obtained from these searches was determined by sequence analysis against proprietary and public (e.g., GENBANK®) nucleic acid and protein databases.
(§2) This example provides newly characterized rice proteins interacting with a rice chitinase, class III (OsCHIB1), and with rice cellulose synthase catalytic subunit, RSW1-like (OsCS). An automated, high-throughput yeast two-hybrid assay technology (provided by Myriad Genetics Inc., Salt Lake City, Utah) was used to search for protein interactions with the chitinase and cellulose synthase bait proteins.

[8] = biological target: T5, O. sativa Cellulose Synthase Catalytic …
Experimental: as §1, §2

[9] = biological target: T6, Novel Protein PN22154, Similar to A. …
Experimental: as §1, §2

[10] = biological target: T7, Novel Protein PN23485, Similar to …
[11] = biological target: T8, Novel Protein 23053, Fragment, Similar …
[12] = biological target: T9, Beta-Expansin EXPB2, prey clone aa …
[13] = biological target: T10, O. sativa Putative 14-3-3 Protein, prey …

T11 sequence (Q7Y0Y8 90-221): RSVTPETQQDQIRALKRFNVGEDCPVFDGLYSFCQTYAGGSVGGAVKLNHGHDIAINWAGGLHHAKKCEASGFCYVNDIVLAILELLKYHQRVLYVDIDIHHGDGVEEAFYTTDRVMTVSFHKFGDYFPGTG
T12 sequence (P0C510 287-462): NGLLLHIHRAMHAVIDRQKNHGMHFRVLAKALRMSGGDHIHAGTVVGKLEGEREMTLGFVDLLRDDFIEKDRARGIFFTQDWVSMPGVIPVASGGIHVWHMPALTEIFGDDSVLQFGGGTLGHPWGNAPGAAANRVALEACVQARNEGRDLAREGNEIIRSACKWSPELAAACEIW

B1
binding result [1]: binds

B2
binding result [2]: binds
binding result [3]: binds

B3
binding result [4]: binds

B4
binding result [5]: binds

B5
binding result [6]: binds

B6
binding result [7]: binds
binding result [8]: binds
binding result [9]: binds

B7
binding result [10]: binds

B8
binding result [11]: binds
binding result [12]: binds

B9
binding result [13]: binds
